Experimental data as given in patent publication US7790845B2, “Bacterial ion channel” (Children's Medical Center Corporation, priority 2001, dated 2010).
Marks after values point to notes of the source that are not given here.

Assays:
Assay type in all cases: cell-based
CHO-K1 or COS-7 cells [1] = experiment: Whole-cell current, activation, inactivation and recovery of NaChBac (Example 1)
CHO-K1 or COS-7 cells [2] = experiment: Ion selectivity and relative permeability of NaChBac (Example 1)
Text: The internal pipette solution used in determining the relative permeability of K^+ and Ca^2+ contained (in mM) 133 Cs-methanesulfonate, 5 CsCl, 10 EGTA, 10 HEPES (pH adjust to 7.2 with CsOH). External solution for K^+ permeability experiments contained 142 KCl, 10 HEPES, 10 glucose (pH 7.3 adjusted with KOH). External solution for Ca^+ permeability determinations contained 105 CaCl2, 10 HEPES, 20 glucose (pH 7.3, adjusted with Ca(OH2). The external solution used to study Ma^+ permeability contained (in mM): 140 NaCl, 5CsCl, 10 HEPES, 10 glucose (pH 7.3, adjusted with NaOH). Internal solutions were the same as described in the Detection of Current example. The relative permeability of Cs^+ versus Na^+ was calculated according to: PCs/PNa=([Na]o−[Na]iexp(ErevF/RT)/([Cs]iexp(Erev/RT)/([Cs]o) (1)
The relative permeabilities of K^+ and Ca^2+ were evaluated under bi-ionic conditions, and the relative permeability of K^+ and Ca^2+ to Cs^+ was calculated according to the following equations: Pk/PCs=[Cs]iexp(ErevF/RT)/[K]o (2) PCa/Pcs=([Cs]iexp(ErevF/RT){exp(ErevR/RT)+1}/4[Ca]o) (3)
INaChBac was weakly permeant to Ca^2+; no significant difference in current was observed by sequential perfusion with bath solution containing 1 and 10 mM [Ca^2+]o (FIG. 3B). In isotonic [Ca^2+]o (cations replaced with 105 mM Ca^2), in the inward current was <6% of that in normal [Na^+] (7.6±0.9 pA/pF at −10 mV, n=8; FIG. 3B). In contrast, INaChBac, amplitude correlated well with [Na^+]o (FIG. 3C, D). […] To estimate the relative ion selectivity of the channel, we measured changes in reversal potential while changing ionic composition. The calculated relative selectivity (±SEM) of NaChBac based on measured Erev was: PNa/PCa=72±10 (n=12); PNa/PCs=383±56(n=8); PNa/PK=171±16(n=8). INaCahBac selectivity for Na^+ is at least as high as traditional Nav channels (1, 14).

[3] = test system: CHO-K1 cells or COS-7 cells; experiment: Expression, voltage- and time-dependence of wt and mutant NaChBac (Example 2)
Text: NaChBac was cloned from Bacillus halodurans C-125 DNA by the polymerase chain reaction (PCR; BAB05220) (Ren, Navarro et al. 2001). The NaChBac construct containing an open reading frame of 274 amino acid residues was subcloned into a pTracer-CMV2 vector (Invitrogen, Carlsbad, Calif.) containing enhanced green fluorescent protein (eGFP). The skeletal muscle Na^+ channel SKM1 (M26643) was used in comparison to NaChBac under identical recording conditions and determinations of permeability ratios. Mutations were introduced into the NaChBac cDNA by site-directed mutagenesis (Quickchange™ site-directed mutagenesis kit; Stratagene; La Jolla, Calif.). All mutations were confirmed by DNA sequencing and restriction digestion. Wild-type NaChBac and mutant cDNAs were transfected into CHO-K1 cells or COS-7 cells with LipofectAMINE 2000 (Life Technologies, Rockville, Md.). Transfected cells were identified by fluorescence microscopy and membrane currents were recorded 24 to 48 hours after transfection.
Unless otherwise stated, the pipette solution contained (in mM); 147 Cs, 120 methanesulfonate, 8 NaCl, 10 EGTA, 2 Mg^2+-adenosine triphosphate, and 20 HEPES (pH 7.4). Bath solution contained (in mM); 140 NaCl, 10 CaCl2, 5 KCl, 10 HEPES (pH 7.4), and 10 glucose. For some experiments, NaCl was isotonically replaced by CaCl2.
The voltage dependence of NaChBac and mutants channel activation was determined from a holding potential of −100 mV. Instantaneous tail current were measured at −100 mV after a test potential of 40 ms duration. Normalized tail current amplitude was plotted vs. test potentials and fitted with a Boltzmann function. Measurements of steady state inactivation for NaChBac and mutants channel were resolved using 2 s prepulses and 1 s test pulse to −10 mV, 0 mV or +20 mV depending on the mutant's peak voltage. Cells were held at −100 mV for 20 s between pulses to allow the recovery from inactivation. Normalized test current amplitude was plotted vs. prepulse potential and fitted with a Boltzmann function. The activation and steady state inactivation curve were fitted by the Boltzmann equation: I=Imax−(Imax−Imin)/(1+exp((V−V1/2)/k)) where Imax and Imin are the maximum and minimum current values, V is the test voltage, V1/2 is the voltage activation midpoint and k is the slope factor.
Whole-cell currents were recorded using an Axopatch 200B (Axon Instruments, Union City, Calif.) amplifier. Data were digitized at 10 or 20 kHz, and digitally filtered off-line at 1 kHz. Patch electrodes were pulled from borosilicate glass and had resistances of 2-5 MΩ. All experiments were conducted at 22°±2° C. For CHO cells, cell capacitance was 7.6±0.3 pF and for COS-7 cells was 13.9±0.6 pF. […] Series resistance (Rs) was compensated up to 90% to reduce all series resistance errors to <5 mV. Cells in which […] were discarded. Pooled data are presented as means±SEM. Statistical comparisons were made using two-way analysis of variance (ANOVA) and two-tailed t-test with Bonferroni correction; P<0.05 indicated statistical significance.

[4] = calculated from measured Erev, n=8

B1: NaChBac: bacterial voltage-sensitive Na+-selective ion channel from Bacillus halodurans, 274 amino acids, SEQ ID NO: 1; pore residues 190-195 LESWAS (protein)
chain: MKMEARQKQNSFTSKMQKIVNHRAFTFTVIALILFNALIVGIETYPRIYADHKWLFYRIDLVLLWIFTIEIAMRFLASNPKSAFFRSSWNWFDFLIVAAGHIFAGAQFVTVLRILRVLRVLRAISVVPSLRRLVDALVMTIPALGNILILMSIFFYIFAVIGTMLFQHVSPEYFGNLQLSLLTLFQVVTLESWASGVMRPIFAEVPWSWLYFVSFVLIGTFIIFNLFIGVIVNNVEKAELTDNEEDGEADGLKQEISALRKDVAELKSLLKQLK
modifications: Bacillus Halodurans
notes: pore residues 190-195 LESWAS
- voltage of 50% steady-state inactivation (CHO-K1 or COS-7 cells [1]): −40 mV
- activation τ (CHO-K1 or COS-7 cells [1]; at −10 mV, n=32): 12.9 ± 0.4 ms
- inactivation τ (CHO-K1 or COS-7 cells [1]; at −10 mV, n=32): 166 ± 13 ms
- reversal potential of INaChBac (CHO-K1 or COS-7 cells [1]; whole-cell, ENa=+72 mV): +70 mV
- slope of Erev as a function of [Na+]o (CHO-K1 or COS-7 cells [2]): 57.8 mV/decade
- inward current in isotonic [Ca2+]o relative to that in normal [Na+] (CHO-K1 or COS-7 cells [2]; 105 mM Ca2+): < 6%
- peak current (CHO-K1 or COS-7 cells [2]; 140 mM [Na+]o/1 mM [Ca2+]o): 1430 pA
- current density (CHO-K1 or COS-7 cells [2]; 140 mM [Na+]o/1 mM [Ca2+]o, n=8): 135.9±11 pA/pF
- relative selectivity PNa/PCs (CHO-K1 or COS-7 cells [2]; [4]): 383±56
- relative selectivity PNa/PK (CHO-K1 or COS-7 cells [2]; [4]): 171±16
- relative selectivity PNa/PCa (CHO-K1 or COS-7 cells [2]; calculated from measured Erev, n=12): 72±10
- peak current (CHO-K1 or COS-7 cells [2]; isotonic [Ca2+]o): 87 pA
- current density (CHO-K1 or COS-7 cells [2]; isotonic [Ca2+]o (105 mM Ca2+), −10 mV, n=8): 7.6±0.9 pA/pF
- current in COS-7 cells relative to CHO-K1 cells [3]: 4 to 6 times
- GFP expressing/transfected cells with substantial or detectable currents ([3]; 24-48 hours after transfection): More than 98%
- V1/2 act ([3]; Boltzmann fit of tail currents): −22 mV
- τact ([3]; membrane voltage −10 mV): 12.9 ± 0.4^a ms
- τinact ([3]; membrane voltage −10 mV): 166.0 ± 13^a ms
- kact ([3]; slope factor of activation): 7 mV/e fold
- V1/2 inact ([3]; steady state inactivation, 2 s prepulses): −40 mV
